Results as given in US20210138090A1, “uPAR targeting peptide for use in peroperative optical imaging of invasive cancer” (FLUOGUIDE A/S, priority 2014, published 2021).
Square brackets hold non-standard residues; d marks the D form. Peptide text beside a SMILES is read from it. * marks the point of attachment. IRDye800CW = CC1(C)C(/C=C/C2=C(Oc3ccc(S(=O)(=O)O)cc3)C(=C/C=C3/N(CCCCS(=O)(=O)O)c4ccc(S(=O)(=O)O)cc4C3(C)C)/CCC2)=[N+](CCCCCC(=O)*)c2ccc(S(=O)(=O)[O-])cc21; Cha = N[C@@H](CC1CCCCC1)C(=O)O; AEEA = NCCOCCOCC(=O)O

How the values were obtained:
[1] = target: uPAR H47C-N259C (Homo sapiens, UniProt Q03405, H69C/N281C); experiment: SPR inhibition of uPAR binding to immobilized uPA, constrained uPAR variant (negative control)
Sequence of uPAR H47C-N259C (Q03405 23-305 H69C/N281C limits assumed): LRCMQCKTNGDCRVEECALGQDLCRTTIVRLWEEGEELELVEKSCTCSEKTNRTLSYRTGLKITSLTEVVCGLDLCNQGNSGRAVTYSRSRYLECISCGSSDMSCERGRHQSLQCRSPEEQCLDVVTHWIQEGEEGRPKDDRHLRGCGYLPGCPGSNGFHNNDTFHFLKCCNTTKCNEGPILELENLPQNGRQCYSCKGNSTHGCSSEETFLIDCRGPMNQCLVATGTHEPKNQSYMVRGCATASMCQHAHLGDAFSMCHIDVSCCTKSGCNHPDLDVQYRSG
Description: (§1) Covalent immobilization of purified human prouPA^S356A—was accomplished by injecting 12.5 μg/ml protein dissolved in 10 mM sodium acetate (pH 5.0) over a CM5 chip that had been pre-activated with NHS/EDC (N-ethyl-N′-[3-[…])propyl]-carbodiimide), aiming at a surface density of >5000 resonance units (RU) corresponding to 100 fmols/mm^2. After coupling the sensorchip was deactivated with 1 M ethanolamine. Binding of purified human uPAR as analyte was measured from 4 nM to 0.25 nM at 20° C. using 10 mM HEPES, 150 mM NaCl, 3 mM EDTA (pH 7.4) containing 0.05% (v/v) surfactant P20 as running buffer at a flow rate of 50 μl/min. In between cycles the sensorchip was regenerated by two consecutive 10-μl injections of 0.1 M acetic acid/HCl (pH 2.5) in 0.5 M NaCl. The inhibition of 3-fold dilutions of the compounds in question was measured for 4 nM uPAR with identical running conditions. All experiments were performed on a BiacoreT200 instrument.
(§2) For each inhibition peptide inhibition profile of uPAR binding to immobilized uPA there has been run a preceding standard curve and all calculations are based on the that standard curve.
Surface plasmon resonance (SPR) was applied to determine the […]-value of IRDye800-AE344 on the uPAR⋅uPA interaction in solution using a Biacore 3000 instrument essentially as described. In brief; pro-uPA^S356A, which is the natural ligand for uPAR. […] The analysis was carried out by measuring vobs of a fixed uPAR concentration (2 nM) incubated with a 3-fold dilution series of IRDye800-AE344 (ranging from 0.076 nM to 1.5 μM) for 300 sec at 20° C. with a flow rate of 50 μL/min. A standard curve was measured in parallel (2-fold dilution of uPAR covering 0.06 nM to 2 nM) including one repeated concentration point at the end to validate the biological integrity of the sensor chip. […] The parent nonamer peptide antagonist AE105 (Asp-Cha-Phe-D-Ser-D-Arg-Tyr-Leu-Trp-Ser-OH) was analyzed in parallel as positive control and the closed uPAR^H47C-N259C was used as negative control as its uPA binding cavity cannot accommodate AE105.

[2] = photostability under continuous laser exposure; format: physicochemical
Description: The photostability was evaluated by a factor 2 dilution series with four samples from 0.23-1.8 nM IRDye800-AE344 in 100 μL phosphate buffered saline (PBS) placed in a black 96-well plate. The well was placed in a black box with the Fluobeam mounted in the top at a distance of 23 cm from the well plate. Image acquisition was performed at 0 min, 10 min, 15 min, 20 min, 0.5 h, 1 h, 2 h, 3 h, 6 h, 10 h, 15 h, 24 h. Each dilution sample was normalized to time point 0 and the data from all four samples were pooled.

[3] = tested on: orthotopic GBM (U-87 MG-luc2 cells); experiment: in vivo binding specificity in orthotopic GBM (blocking with AE120, scrambled probe); parameters: species or system mice; conditions: 3 nmol, 1 h
Description: The target specificity to uPAR was evaluated by two different methods: competitive blocking with the uPAR targeting peptide AE120 ((DChaFsrYLWSG)2-βAK) and IRDye800 conjugated to a scrambled peptide, AE354 (IRDye800CW-Glu-Glu-NH—CH2—CH2—O—CH2—CH2—O—CH2—CO—NH—CH2—CH2—O—CH2—CH2—O—CH2—CO-Asp-Cha-Glu-(D)Ser-(D)Arg-Tyr-Leu-Glu-Ser-OH) with similar peptide length as the active peptide. The competitive blocking dose of 1.4-2.8 mg AE120 was injected intraperitoneally 15-30 min prior to intravenous injection of 3 nmol IRDye800CW-AE344 and imaged at 1 h (n=5). The scrambled peptide was administered at 3 nmol and the animals were imaged after 1 h (n=4).
Images were analyzed and processed in ImageJ 1.52a, NIH, USA. Signal measurements were performed on the raw images generated by the Fluoptics system. Tumor signal was measured as a mean fluorescence intensity of the whole tumor and background signal was measured as the mean of a representative area with no tumor on the contralateral hemisphere. Presented pictures are contrast enhanced in ImageJ with the Contrast Enhancement (Saturated pixels: 0.3%).

[4] = acute toxicity: liver and kidney histology; format: in vivo, mice; conditions: 3 nmol, 1 h post injection
Text: Liver and kidneys: Tissue was formalin fixed and paraffin embedded. Sections of 2-4 um thick were cut and a routine staining panel applied including: H&E, modified sirius, PAS and Masson trichome for both and additional PAS with silver for kidneys and PAS with diastase, iron, reticulin artisan and oxidised orcein for the livers. Livers were immunohistochemically stained, immunohistochemical evaluation on 3 μm thick sections was done using the CK7 antibody from Dako/Agilent, GA619 (clone OV-TL12/30) following the manufacturer's instructions. The staining took place on the Omnis from Agilent utilizing the EnVision Flex+ detection kit (GV800). The primary antibody was diluted using Antibody Diluent (Dako DM830) and were incubated for 20 minutes. The sections were counterstained with hematoxylin.

[5] = target: uPAR wt (Homo sapiens, UniProt Q03405); experiment: SPR inhibition of uPAR binding to immobilized uPA
Sequence of uPAR wt (Q03405 23-305 limits assumed): as the sequence (Q03405 23-305 H69C/N281C limits assumed) above, with C47H, C259N counted along it
Description: as §1, §2
Surface plasmon resonance (SPR) was applied to determine the […]-value of IRDye800-AE344 on the uPAR⋅uPA interaction in solution using a Biacore 3000 instrument essentially as described. In brief; pro-uPA^S356A, which is the natural ligand for uPAR. […] The analysis was carried out by measuring vobs of a fixed uPAR concentration (2 nM) incubated with a 3-fold dilution series of IRDye800-AE344 (ranging from 0.076 nM to 1.5 μM) for 300 sec at 20° C. with a flow rate of 50 μL/min. A standard curve was measured in parallel (2-fold dilution of uPAR covering 0.06 nM to 2 nM) including one repeated concentration point at the end to validate the biological integrity of the sensor chip. Running buffer contained 10 mM HEPES, 150 mM NaCl, 3 mM EDTA and 0.05% (v/v) surfactant P20, pH 7.4. The sensor chip was regenerated with two injections of 0.1 M acetic acid, 0.5 M NaCl. The parent nonamer peptide antagonist AE105 (Asp-Cha-Phe-D-Ser-D-Arg-Tyr-Leu-Trp-Ser-OH) was analyzed in parallel as positive control and the closed uPAR^H47C-N259C was used as negative control as its uPA binding cavity cannot accommodate AE105.

[6] = biodistribution by organ fluorescence imaging; format: in vivo, mice; conditions: 3 nmol, 1 h
Text: […] Due to renal excretion, the fluorescence signal in the kidneys were out of scale compared to all the other organs. […] The skin was imaged partially (1.25 g) and the biodistribution was extrapolated with respect to the full weight of the skin (4.9 g).

## CC(C)C[C@H](NC(=O)[C@H](Cc1ccc(O)cc1)NC(=O)[C@@H](CCCNC(=N)N)NC(=O)[C@@H](CO)NC(=O)[C@H](Cc1ccccc1)NC(=O)[C@H](CC1CCCCC1)NC(=O)[C@H](CC(=O)O)NC(=O)COCCOCCNC(=O)COCCOCCNC(=O)[C@H](CCC(=O)O)NC(=O)[C@H](CCC(=O)O)NC(=O)CCCCC[N+]1=C(/C=C/C2=C(Oc3ccc(S(=O)(=O)O)cc3)C(=C/C=C3/N(CCCCS(=O)(=O)O)c4ccc(S(=O)(=O)O)cc4C3(C)C)/CCC2)C(C)(C)c2cc(S(=O)(=O)[O-])ccc21)C(=O)N[C@@H](Cc1c[nH]c2ccccc12)C(=O)N[C@@H](CO)C(=O)O [IRDye800CW-AE344, IRDye800-Glu-Glu-O2Oc-O2Oc-Asp-Cha-Phe-D-ser-D-arg-Tyr-Leu-Trp-Ser-OH] (IRDye800CW-EE[AEEA][AEEA]D[Cha]F[dS][dR]YLWS-OH)
[1]
  IC50: 5.8 ± 0.02 µM
[2]; continuous laser exposure for 1 h
  preserved fluorescence intensity (photostability): 84%
[2]; continuous laser exposure, after 2 h
  preserved fluorescence intensity (photostability): 62%
[3]; blocked with AE120
  TBR: 4.6
[3]; competitively blocked with AE120
  normalized TBR (ref: active probe): 0.70
[3]; no blocking
  TBR: 6.6
  normalized TBR (ref: active probe): 1.00
[4]
  kidney histology (H&E stained): normal
  liver histology (H&E stained): normal
[5]
  IC50: 20 ± 1.1 nM
[6]; 333 ms exposure
  MFI brain: 19 a.u.
  MFI liver: 88 a.u.
  MFI lungs: 101 a.u.
  MFI skin: 99 a.u.
  MFI tumor: 65 a.u.
[6]; normalized to skin=100
  normalized uptake brain: 0.7
  normalized uptake colon: 4.0
  normalized uptake heart: 0.4
  normalized uptake kidneys: 38.8
  normalized uptake liver: 12.2
  normalized uptake lungs: 4.2
  normalized uptake pancreas: 3.4
  normalized uptake small intestine: 11.2
  normalized uptake spleen: 0.4
  normalized uptake tumor: 0.1
  normalized uptake ventricle: 0.9
[6]; skin = reference
  normalized uptake skin: 100
[6]; extrapolated from 40 ms exposure
  MFI kidneys: 1,236 a.u.
